From the nanobody polyreactivity screen of Harvey et al. (2022)

experiment: yeast display, Sf9 membrane polyspecificity reagent, FACS + sequencing; frameworks hold sequencing errors
Method in brief: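 Genes from sorted yeast were amplified by colony PCR, read by MiSeq 2 × 250 sequencing and filtered on CDR length. These cells carried a synthetic nanobody library in Saccharomyces cerevisiae BJ5465 and were sorted by FACS into low and high (top ~1%) gates on anti-HA and streptavidin fluorescence. Polyreactivity is labelled according to the gate of origin.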

Question: Which “polyreactivity (PSR sort gate)” value does the source give for “QVQLVESGGGLVQAGGSLRLSCAASGTIFRVYAMGRYRQAPGTERELVAAISSSGGSTYYADSVKGRFTISRDNAKTTVYLQMNSLKPEDTAVYYCAAEYDGPYTWVDYYYHYGYWGQGTQVTVSS” here?
Answer: low polyreactivity

Question: For “QVQLVESGGGLVQAGGSLRLSCAASGRIFDYYDLGWYRQAPRKERELVAAITSSGTSTYYADSVKGRFTISRDNAKNTVYLQMNSLKPEDTAVYYCNARSIRPWGENGYWGQGTQVTVSS”, which “polyreactivity (PSR sort gate)” value is on record?
Answer: high polyreactivity

Question: Which “polyreactivity (PSR sort gate)” value does the source give for “QVQLVESGGGLVQAGGSLRLSCAASGSTFGPYTMGWYRQAAGKERELVAAITGGGDSTYYADSVKGRFTISRDNAKNTVYLQMNSLKPEDTAVYYCAAKKPTTRMGYWGQGTQVTVSS” here?
Answer: low polyreactivity

Question: With “QVQLVESGGGLVQAGGSLRLSCAASGNIFQGNAMGWYRQAPGKERELVAAITSDGSTYADSVKGRFTISRDNAKNTVYLQMNSLKPEETAVYYCNADCITSLPVPALDYWGQGTQVTVSS” as the sequence, how does the “polyreactivity (PSR sort gate)” value read?
Answer: low polyreactivity

Question: Which “polyreactivity (PSR sort gate)” value does the source give for “QVQLVESGAGLVQAGGSLPLSCAASGFTFTIYAMGWYRQAPGKERELVATISGRAGRTYYADSVKGRFTISRDNAKNTVYLQMNSMKPEDTAGYYCNAGQWRYTGLYYYWGQGTQVTVSS” here?
Answer: high polyreactivity

Question: Which “polyreactivity (PSR sort gate)” value does the source give for “QVQLVESGGGLVQAGGILRLSCAASGSTISYNAMGWYRQAPGKERELVAAINYSGGNTNYADSVKGRFTISRDNAKNTVYLQMNSLKPEDTAVYYCAARWWSGYGYWGQGTQVTVSS” here?
Answer: high polyreactivity

Question: With “QVQLVESGGGLVQAGGSLRLSCAASGSIFHGYAMGWYRRAPGKERELVAAITYSGGRTYYADSVKGRFTISRDNAKNTVYLQMNSLKPEDTAVYYCAALTRRVKKYDYWGQGTQVTVSS” as the sequence, how does the “polyreactivity (PSR sort gate)” value read?
Answer: high polyreactivity

Question: With “QVQLVESGGGLVQAGGSLRLSCAASGRIFGYYAMGWYRQAPGKERELVAAINSGSRTYYADSVKGRFTISRDNAKNTVYLQMNSLKPEDTAVYYCAARVRYPPYRSSDGQRGGYWGQGTQVTVSS” as the sequence, how does the “polyreactivity (PSR sort gate)” value read?
Answer: high polyreactivity

Question: For “QVQLVESGGGLVQAGGSLRIICAASGRIFSNYAMGWYRQAPGKERELVAAITYSTSRTYYADSVKGRFTISRDNAKNTVYLHMNSLKPEDTAVDYCAAGRGPYYRSRTPLYYWGQGTQVTVSS”, which “polyreactivity (PSR sort gate)” value is on record?
Answer: high polyreactivity

Question: Which “polyreactivity (PSR sort gate)” value does the source give for “QVQLVESGGGLVQAGGSLRLSCAASGRNFLYNAMGWYRQAPGKERELVAAISGGSTNYADSVKGRFTISRDNAKNTVYLQMHSLKPEDTAVYYCAARYLRRYNWGQGTQVSVSS” here?
Answer: high polyreactivity

Question: With “QVQLVESGGGLVQAGGSLRLSCAASGRISESNDMGWYRQAPGKERELVAAISSSGGSTYYADSVKGRFTISRDNAKNTVYLQMNSLKPEDTAVYYCAAQTGYSYGITWQFTKYNYWGQGTQVTVSS” as the sequence, how does the “polyreactivity (PSR sort gate)” value read?
Answer: low polyreactivity

Question: For “QVQLVESGGGLVQAGGSLRLSCAASGRTHIYAMGWYRQAPGKERELVAGISRSGTRTYYADSVKGRFTISRDNAKNTVYLQMNSLKPEDSAVYYCNAQAYYQGYDYWGQGTQVTVSS”, which “polyreactivity (PSR sort gate)” value is on record?
Answer: high polyreactivity

Question: With “QVQLVESGGGLVQAGGSLRLICAASGRTFRSNDMGWYRQAPGKERELVAANSLGTGTTYYADSVKGRFTISRDNAKNTVYLQMNSLKPEDTAVYYCHTDYRPIDTEYTSGYDYWGQGTQVTVSS” as the sequence, how does the “polyreactivity (PSR sort gate)” value read?
Answer: low polyreactivity

Question: For “QVQLVESGGGLGQAGGSLRLSCAASGSIFGRYAMGWYRQAPGKERELVTVITSGGSTNYADSVKGRFTISRDNAKNTVYLQMNSVKPEDTAVFYCAVRPYELHRLADQHGGDDYWGQGTQVTVSS”, which “polyreactivity (PSR sort gate)” value is on record?
Answer: low polyreactivity

Question: For “QVQLVESGGGLVQAGGSLRLSCAASGRIFQRYAMGWYRQAPGKERELVAAISSSGTTYYADSVKGRFTISRDNAKNTVYLQMNSLKPEDTAVYYCAATYYTSRISRRYGYWGQGTQVTVSS”, which “polyreactivity (PSR sort gate)” value is on record?
Answer: high polyreactivity

Question: Which “polyreactivity (PSR sort gate)” value does the source give for “QVQLVESGGGLVQAGGSLRLSCAASGRTYVDYAMGWYRQAPGKEREFDAAITWSGGSTYYADSVKGRFTISRDYAKNTVYLQMTSLKPEDTEVYYCNRDTNVGVLNYKFYDGPERDYWGQGTQVTVSS” here?
Answer: low polyreactivity

Question: For “QVQLVESGGGLVQAGGSLRLSCAASGSTFLEYARGWSRQAPGKERELVATITGGGGTNYADSVKGRFTISRDNAKNTVYLQMNSLKPEETAVYYCAADYGGAYEYGYWGQGTQVTVSS”, which “polyreactivity (PSR sort gate)” value is on record?
Answer: low polyreactivity

Question: With “QVQLVESGGGLVQAGGSLRLSCAASGSTFVSNAMGWYRQAPGKERELVAAISTSGGSTYYADSVKGRFTISRDNAKKTVYLQMNSLKTEDTAVYFCAAVSPRRYRYDYWGQGTQVTVSS” as the sequence, how does the “polyreactivity (PSR sort gate)” value read?
Answer: low polyreactivity

Question: Which “polyreactivity (PSR sort gate)” value does the source give for “QVQLVESGGGLVQAGGSLRLSCAASGSTFYGKAMGWYRQAPGKERELVDTISWSGGSTYYADSVKGRFTISRDNAKNTVYLQMNSVKPEDTAVYYCNAEITTKSLVTRYSWYGGDYWRQGTQVTVSS” here?
Answer: low polyreactivity

Question: Which “polyreactivity (PSR sort gate)” value does the source give for “QVQLVESGGGLVQAGGSLRLSCAASGRTFFWNAMGWYRQAPGKERELVATISRSGGSTYYADSVKGRFTISRDNAKNTVYLQMNSLKPEDTAVYYCAAQYVRRSRKYDYWGQGTQVTVSS” here?
Answer: high polyreactivity

Question: For “QEQLQESGDGLVQAGGSLRLSSAASGTIFSDYGMGGYRQAPGKERELLAGISDGCNTNYTDSVKGRFTISRDNAHRVSADEQPETGGYRGVLLRGSERWLLFYVYWGQGTQGTVSS”, which “polyreactivity (PSR sort gate)” value is on record?
Answer: high polyreactivity

Question: Which “polyreactivity (PSR sort gate)” value does the source give for “QVQLVESGGGLVQAGGSLRLSCAASGSTFELYAMGWYRQAPGKERDFVAAITYDSTYYADSVKGRFTISRDNAKNTVYLQMNSLKPEDTAVYYCAAAYWHYYYGWDMYYWGQGTQVTVST” here?
Answer: high polyreactivity

Question: Which “polyreactivity (PSR sort gate)” value does the source give for “QVQLVESGGGLVQAGGSLRLSCAASGRTYHGYAMGWYRQAPGKERELVARINWSDGRTYYADSVKGRFTISRDNAKNTVYLQMNSLKPEDTAVYYCAADKTVSYAPAWYYYWGQGTQVNVSS” here?
Answer: low polyreactivity

Question: With “QVQLVESGGGLVQAGGSLRLSCAASGRIFTHNSMGWYRQAPGKERELVAAISYSGVSTYYADSVKGRFTISRDTAKNTVFLQMNSLKPEDTAVYYCNAVWEYSGKSDYWGQGTQVSVSS” as the sequence, how does the “polyreactivity (PSR sort gate)” value read?
Answer: low polyreactivity

Question: For “QVQLVESGGGLVQAGGSLRLSCAASGFTLHVYAMGWYRQAPGKERELVAAISTGGNTNFADSVKGRFTISRDNAKNTVYLQMNSLKPEDTAVYYCNTLGRYSSYYWGLGTQVTVSS”, which “polyreactivity (PSR sort gate)” value is on record?
Answer: high polyreactivity

Question: With “QVQLVDSGGGLVQAAGSLRLSCAASGSIFIFNTMGWYRQAPGKESELVASISSSGSTYYADSVKGRFTISRDNAKNTVYLQMKSLKPEDTAVYYCAATYYRPAYYGSYYYWGQGTQVTVSS” as the sequence, how does the “polyreactivity (PSR sort gate)” value read?
Answer: low polyreactivity

Question: Which “polyreactivity (PSR sort gate)” value does the source give for “QVQLVESGGGLVQAGGSLRLSCAASGSIFWPNAMGWYRQAPGKERELVAAISRGGSTNYADSVKGRFTISRDNAKNTVYLQMNSLKPEDTAVYYCATDAYYYNLLYLFPRYDYWGQGTQVTVSS” here?
Answer: low polyreactivity

Question: With “QVQLVESGGGLVQAGGSLRLSCAASGSIFSINAMGWYRQAPGKERELVAAISWDGGSTYYADSVKGRFTISRDNAKYTVYLQKNSLKPEDTAVYYCNAAGYVPRNIFAGSRSLRYDYWGQGTQVTVSS” as the sequence, how does the “polyreactivity (PSR sort gate)” value read?
Answer: high polyreactivity

Question: For “QVQLVESGGGLGQAGGSLRLSSAASGRTFVFYAMGWYIQAPGKERELVAAITSSGGRTYYADSVKGRFTISRDNAKNTVYLQMNSLKPEDTAVYYCAAPYYPYKYDSWGQGTQVTGSS”, which “polyreactivity (PSR sort gate)” value is on record?
Answer: low polyreactivity

Question: For “QVQLVESGGGLLQAGGSLRLSCAASGIILYWNTMGWYRQAPGKERELVAAITWSVGRTYYADSVKGRFTISRDNAKNTVYLQMNSLKPEDTAVYYCNAGYDSYSRDYWGQGTQVTVSS”, which “polyreactivity (PSR sort gate)” value is on record?
Answer: low polyreactivity

Question: With “QVQLVESGGGLVQAGGSLRLSCAASGGTFSQYAMGWYRQAPGKERELVARISRRGGSTSYADSVKGRFTISRDNAKNTVYLQMNSLKPEDTAVYYCAKDAPSVYPGRFGNTGGYAYDYWGQGTQVTVSS” as the sequence, how does the “polyreactivity (PSR sort gate)” value read?
Answer: high polyreactivity

Question: For “QVQLVESGGGLVQAGGSLRLSCAASGFTFGYNAMGWYRQAPGKERELVAVITQSGGRTYYADSVKGRFTISRDNAKNTVYLQMISLKPEDTAVYYCNKVPRVYGYVKGSDYWGQGTQVTVSS”, which “polyreactivity (PSR sort gate)” value is on record?
Answer: high polyreactivity

Question: For “QVQLVESGGGLVQAGGSLRLSCAASGSIFYSNAMGWYRQAPGKEREFVAAISAGGGSTYYADSVKGRFTISRDHSKNTVYFQMNSLKPEDTAVYYCAKGPLPRAGVKFDYWGQGTQVTVSS”, which “polyreactivity (PSR sort gate)” value is on record?
Answer: low polyreactivity

Question: Which “polyreactivity (PSR sort gate)” value does the source give for “QVQLVESGGGLVQAGGSLRLSCAASGSTFRYYAMGWYRQAPGKERELVAVISTSGNTYYADSVKGRFTISRDNAKNTVYLQMNSLKPEDTAVYYCAARGVGGQISQEYDYWGQGTQVTVSS” here?
Answer: low polyreactivity

Question: Which “polyreactivity (PSR sort gate)” value does the source give for “QLQLVESGGGLVQAGGSLRLSCAASGSTASINAMGWYRQAPGKERELVADISTNGDSTSYADSVKGRFTISRDNAKNTVYLQMNSLKPEDTAVYYCNAVPHIYAEGTAYKYWGQGTQETVSS” here?
Answer: low polyreactivity

Question: With “QVQLVESGGGLVQAGGRLRLSCAASGRTFYINTMGWYRQAPGKERELVAAISSSGDSTYYADSVKGRFTISRDNAKNTVYLQMNSLKPEDTAVYYCATDYGWYDYWGQGTQVTVSS” as the sequence, how does the “polyreactivity (PSR sort gate)” value read?
Answer: low polyreactivity

Question: For “QDQLVESGGGLVQAGGSLRLSFAASGLTFRYYAMGWYRQAPGKERELVAAISSGGRTDYADSVKGRFTISRDNAKNTVYLQMNSLKPEDTAVYYCNARGRIRSYRQVRTYSAYNYWGQGTQVTVSS”, which “polyreactivity (PSR sort gate)” value is on record?
Answer: high polyreactivity

Question: For “QVQLEESGGGLVQAGGSLRLSCAASGFTFGVYPMGWYRQATGKEREFVADITYSGGSTYYADSVKGRFTISRDNAKNTVYLHMNSLKPEDTAVYYCAAGYVYTWYGEYVVGYDYWGQGTQVTVSS”, which “polyreactivity (PSR sort gate)” value is on record?
Answer: high polyreactivity

Question: Which “polyreactivity (PSR sort gate)” value does the source give for “QVQLVESGGGLVQAGGRLRLSCASSGITFTFNAMGRYTQAPGKEMELVAAITWSGGSTFYADSVKGRFTISRDNAKNSVYLQMNSLIPEDTAVYYCARDTELYVRWLDYWGQGTQVTVSS” here?
Answer: low polyreactivity

Question: With “QVQLVDTGGGIVQAGGSLRLSCAASGRTFFWNAMGWYRLAPGKERELVAAITWYGGSTYYADSVKGRFTISRDNAKNTVYLQMNSLKPEDSAVYYCAAVVSDYVWRYEYWGQGTQVTVSS” as the sequence, how does the “polyreactivity (PSR sort gate)” value read?
Answer: low polyreactivity

Question: For “QVQLVESGGGLVQAGGSLRLSCAASGHIFFYYTMGWYRQAPGKERELVAGIPIGGSTNYADSVKGRFTISRDNAKNTVYLQMNSLKPVDTAVYYFNVVKYVYIYSFWEYYYWGQGTQVTVSS”, which “polyreactivity (PSR sort gate)” value is on record?
Answer: low polyreactivity

Question: With “QVQLVESGGGLVQAGGSLRLSCAASGLTFYYNAMGWYRQAPGKERELVAAITWSTDSTYYADSVKGRFTISRDNAKNTVYLQMNSLKPEDTAVYYCAAAVDAFTNKQYYYWGQGTQVTVSS” as the sequence, how does the “polyreactivity (PSR sort gate)” value read?
Answer: low polyreactivity

Question: With “QVQLVESGGGLVQAGGSLRLSCAASGRIFYEYAMGWYRQAPGKERELVAISTSGGNTYYADSVKGRFTISRDNAKNTVYLQMNSLKPEDTAVYYCAARLQYYPYYYWGQGTQVTVSS” as the sequence, how does the “polyreactivity (PSR sort gate)” value read?
Answer: high polyreactivity
